A short description of this series: amyloid nucleation score (Sup35N fusion, yeast selection) (log enrichment); library NNK3; higher = more nucleation; inactive = no reads after selection. The essentials:
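Random libraries were run with three technical output replicates. In each, psi-negative yeast expressing Sup35N fused to peptides of 20 random codons were induced 24 hours with 100 μM copper sulfate and grown 7 days at 30°C on medium lacking adenine and uracil, and input and output plasmid inserts were Illumina-sequenced. The nucleation score is the DiMSum log enrichment of output over input reads, centred on the mode score of non-aggregating sequences, and sequences under 100 input reads were excluded.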

± gives the uncertainty stated by the source.

Consider DYLLWESKGLVWKCMMTCCG, for which the amyloid nucleation score result is “inactive”.

For the substance DSWTAACAHSR, the amyloid nucleation score result is “inactive”.

Turning to RAKVNSRGCEESFF, the amyloid nucleation score was -0.007 ± 0.73.

Turning to TCLEVYGSDMFRTKIRNHDK, the amyloid nucleation score result is “inactive”.

Substance MDITWIKVVHNIHQTVRSKF registered an amyloid nucleation score of 1 ± 0.22.

Consider RVTVPDVDCGKASWSPGKVC, for which the amyloid nucleation score entry was “inactive”.

In the case of VIRQVCYYRLGEWLLGAR, the amyloid nucleation score entry is “inactive”.

For the substance VLVLAMITFYNLYMYYDVGR, the amyloid nucleation score entry was “inactive”.

As for MINCISNMVISIGSKRTYPS, the amyloid nucleation score is 2.5 ± 0.068.

In the case of YFRFRSFLVLSDM, the amyloid nucleation score entry was “inactive”.

On to KHYDLGFQYFSR, for which the amyloid nucleation score entry is “inactive”.

As to ATAPYDTVCRLYCLSWPPRS, the amyloid nucleation score result was “inactive”.

As to LWNVLHDNSHCSLGSTPLGQ, the amyloid nucleation score result was “inactive”.

As to VGNGYTMSG, the amyloid nucleation score entry is “inactive”.

As to SIQRICMYLKGESCTRVYHS, the amyloid nucleation score result is “inactive”.

For the substance DSGLFKYSYGLWEKLLFYRM, the amyloid nucleation score entry is “inactive”.

With KSSIMKGKLTHRGSQWFASQ, the amyloid nucleation score entry is “inactive”.

Regarding LKSWDTIWVEDNYSLC, the amyloid nucleation score was -0.148 ± 0.81.

Consider HCSCRNWSLMLGRFFVFVTC, for which the amyloid nucleation score entry is “inactive”.

On to PVQACRCKSH, for which the amyloid nucleation score entry is “inactive”.

On to LLYSLWQSHLMLTGCNM, for which the amyloid nucleation score result is “inactive”.

Regarding NVVFV, the amyloid nucleation score entry is “inactive”.

In the case of RYDLSVSIATMVNVYFLLRG, the amyloid nucleation score result is “inactive”.

For the substance EHNYVSTIGYSCRFEPGTRR, the amyloid nucleation score result is “inactive”.

Consider PCFEFSTSVRVFSDAKGLSV, for which the amyloid nucleation score amounted to 0.234 ± 0.25.

Regarding EDYRVGW, the amyloid nucleation score result is “inactive”.

Substance FEDCSTLH yielded an amyloid nucleation score of -0.482 ± 0.84.

In turn, NYFQFCCGLETVNNYYRKCE registered an amyloid nucleation score of 1.76 ± 0.066.

For RKCCGVLSLSASLHDRDDGC, the amyloid nucleation score result was “inactive”.

In the case of VLYYCGFSITARKSEKLVWP, the amyloid nucleation score result is “inactive”.

IYGTRGSIKSYDTHSGRCGR: the amyloid nucleation score result was “inactive”.

With NMCYSVCVHYLLTAESKCHT, the amyloid nucleation score entry was “inactive”.

For the substance ISCGGLNQ, the amyloid nucleation score entry was “inactive”.

For LDLSLMHGMFTYFGVHMMMP, the amyloid nucleation score entry is “inactive”.

For GHNVQGNRLMITYDLNIVGS, the amyloid nucleation score entry was “inactive”.

For YHEGLYCGWSYNNCYLTFIG, the amyloid nucleation score was 0.821 ± 0.25.

Substance SRSVMIPVNS displayed an amyloid nucleation score of -0.038 ± 0.75.

FGTNVLYAFM: the amyloid nucleation score entry is “inactive”.

As to TSAYGMSSWGFWS, the amyloid nucleation score result is “inactive”.

Consider NINYTYLESVLIMGYMFREL, for which the amyloid nucleation score worked out at 2.21 ± 0.095.

For the substance PVVTVHAWHRFNMHL, the amyloid nucleation score result was “inactive”.

On to NLMCVNTVGLKYGPRELSNH, for which the amyloid nucleation score result is “inactive”.

Turning to VEGCMIFMVVSLLKHYASYT, the amyloid nucleation score result was “inactive”.

For SVAGRCVSWNQRGKGLRNAR, the amyloid nucleation score result is “inactive”.

As to IFPNLACSFRFCTRPYRSSM, the amyloid nucleation score is 0.571 ± 0.25.

For LNDGALDGQSTDALMGMEMR, the amyloid nucleation score result is “inactive”.

Consider ISTLSVSLS, for which the amyloid nucleation score was -0.258 ± 0.36.

WTYIWCAN: the amyloid nucleation score was determined as 1.75 ± 0.11.

On to SSPCSVMVKVGSDHFERVAI, for which the amyloid nucleation score result is “inactive”.

TVLSVGINDFPYRSAISCLR: the amyloid nucleation score entry was “inactive”.

Turning to LYLNEYELTLEAKRDYMNMR, the amyloid nucleation score result is “inactive”.

Take NSIIGPTHHIVK: the amyloid nucleation score entry was “inactive”.

For VPNEVFISYLV, the amyloid nucleation score result was “inactive”.

As to PRNFVANPVELNKGKDFIPS, the amyloid nucleation score result was “inactive”.

On to LLSTTSAVAGGMACVSRNMW, for which the amyloid nucleation score result is “inactive”.

For MWCMGNSVGSVWSRCTYMRY, the amyloid nucleation score result is “inactive”.

Regarding PFFRASRLWLSLVRMRTLSV, the amyloid nucleation score result was “inactive”.

With YIGVRGFLLYPFNRVFEVMM, the amyloid nucleation score result is “inactive”.

Regarding SGWTPYLCSSSYELFREQRK, the amyloid nucleation score was -0.084 ± 0.27.

HDARGLIIFARSHSAESRVR: the amyloid nucleation score result is “inactive”.

LNDDRISSGYAASIVKGLLT came in with an amyloid nucleation score of -0.873 ± 1.4.

As to IMCIYEGAVSMYMRVWSNMS, the amyloid nucleation score result was “inactive”.

Turning to SNLHMILDGWEMCALHAAMG, the amyloid nucleation score result is “inactive”.

Take TSQTLESQDLIFSGCHSGWL: the amyloid nucleation score entry is “inactive”.

Turning to DLGLERLAFS, the amyloid nucleation score entry is “inactive”.

For DRQRWSRLCAGQSLYNCGKC, the amyloid nucleation score result was “inactive”.

Regarding TPSVRRGVMGVSPELCAMVG, the amyloid nucleation score entry is “inactive”.

Regarding TVSLRCWARLSNTDFIRFNS, the amyloid nucleation score result was “inactive”.

RFACFSRGACFCNRLVMPYD: the amyloid nucleation score entry is “inactive”.

For the substance VLSIDTDYKFIGHASDYASI, the amyloid nucleation score amounted to 0.959 ± 0.16.

Regarding NSNSYLGTNFILNQYVLCID, the amyloid nucleation score result was “inactive”.

In the case of TTDCIESVRDG, the amyloid nucleation score was -0.659 ± 1.4.

On to SSRINWSASLNSLTVTVD, for which the amyloid nucleation score result was “inactive”.

In turn, SCFSSYCRYNLRLSWRQNFV had an amyloid nucleation score of -0.474 ± 1.

Regarding LGYWKFSIRHFEGGRLQIHF, the amyloid nucleation score was 2.7 ± 0.056.

On to QRAMYCKSLMSF, for which the amyloid nucleation score entry is “inactive”.

Turning to ITNCLTSACRTSLFMKTQII, the amyloid nucleation score entry was “inactive”.

As for CVAYSRTEVRFYRYEHLWV, the amyloid nucleation score stood at 1.18 ± 0.12.

In turn, THHRPWWYHSEVGVRCMNEV returned an amyloid nucleation score of 0.049 ± 0.96.

As for SLWVSI, the amyloid nucleation score entry is “inactive”.

As for PVHSMASQLPYNNNTTKCLV, the amyloid nucleation score result was “inactive”.

RLGRSLRLIVMITG: the amyloid nucleation score result was “inactive”.

As for FYSFFILSIGSSIPCLRSHM, the amyloid nucleation score entry was “inactive”.

Turning to DNCLNCNRCKCIYKDFWLSA, the amyloid nucleation score entry is “inactive”.

As to YPSMLPGTGSIAIMDEFVIM, the amyloid nucleation score result was “inactive”.

As for FRNCRSWATCTAKARLHCPS, the amyloid nucleation score turned out to be 0.812 ± 0.16.

As for CCAVLFRGVRGMVRCNWNFD, the amyloid nucleation score result was “inactive”.

Turning to IPYRVFRRTLNLVENMMCRM, the amyloid nucleation score result is “inactive”.

In the case of SWYDVRSVPKSMVAMMGWRL, the amyloid nucleation score result was “inactive”.

For the substance VCTTMCDTRWVTISYF, the amyloid nucleation score result was “inactive”.

With LRLVKYNAGIHYGSVGPQFL, the amyloid nucleation score entry was “inactive”.

Consider DVCRTQSFGVAKTVIFCFLF, for which the amyloid nucleation score result was “inactive”.

Take IMKRFVMFLCFSISIWMFVV: the amyloid nucleation score result is “inactive”.

DFGFYWSSVGHAGLETKLYP: the amyloid nucleation score result was “inactive”.

As to CATFFAKLQYNYH, the amyloid nucleation score came to 1.28 ± 0.12.

On to FNKVRWSRVTGTFWKVLIRV, for which the amyloid nucleation score result was “inactive”.

VESFICDMIVSPHSLS: the amyloid nucleation score result is “inactive”.

In the case of SMHRQVPFPMKKHLEHLSMT, the amyloid nucleation score result was “inactive”.

In the case of SQLAYVGTVKTNFDKISRCG, the amyloid nucleation score entry is “inactive”.

As for IRNFPRDLEFLPFWHSILSL, the amyloid nucleation score result is “inactive”.

For VYRYFASKIIKGIFSRCCTF, the amyloid nucleation score entry was “inactive”.

Regarding QKHNSIFMLAVCCYKSCKQ, the amyloid nucleation score stood at 1.07 ± 0.084.

On to DPHCQGFVWGSCMDVWYLSL, for which the amyloid nucleation score came to 2.7 ± 0.062.

With TACVFPLMFTTVPGFFFVVE, the amyloid nucleation score entry is “inactive”.

Take YVVELLVDSGYVPLCTTGQG: the amyloid nucleation score entry is “inactive”.

Substance MVGFLDTFSRIAVRCSIDRW displayed an amyloid nucleation score of -0.344 ± 1.

RIKFNHTAFNWFQIF showed an amyloid nucleation score of 1.69 ± 0.091.

Substance RMILFFVARSSKMGIGTFGF came in with an amyloid nucleation score of 0.868 ± 0.21.

For the substance GVYMQSLLYRCFVFYNYKLD, the amyloid nucleation score result was “inactive”.

On to FSRSTTDVSINSGWKM, for which the amyloid nucleation score result is “inactive”.

Turning to FVYYANYQYFRPFYKMSWHQ, the amyloid nucleation score came out at 1.51 ± 0.078.

In the case of VLIMRCLKWFASMLCFSIPK, the amyloid nucleation score entry was “inactive”.

In the case of PFMCGRAIRLSFREFTRLKN, the amyloid nucleation score result is “inactive”.

Regarding FTSQYIYDAIRRLRKMSIMS, the amyloid nucleation score entry was “inactive”.

Turning to YSRLEFKRWHVVIDSWRWMD, the amyloid nucleation score entry is “inactive”.

For the substance SSVKGTYIFIYDVVMLR, the amyloid nucleation score entry was “inactive”.

Take RPYGFKAIVYGQCR: the amyloid nucleation score entry was “inactive”.

For SSRAAVY, the amyloid nucleation score result is “inactive”.

On to LENLLGMWVSCAWLSGSHFV, for which the amyloid nucleation score result is “inactive”.

In the case of DPINNYSLFFKLCLELHFFA, the amyloid nucleation score entry is “inactive”.

Take NVALRAGSREG: the amyloid nucleation score result is “inactive”.

Consider LQSYRDLQTRFFLFSAHTSL, for which the amyloid nucleation score entry is “inactive”.

For the substance YTVLWDLVFWGTPICYVIDN, the amyloid nucleation score entry is “inactive”.

As for HHHRLARTPHDIVPRQKLVV, the amyloid nucleation score entry is “inactive”.

For IDISIL, the amyloid nucleation score result was “inactive”.

As for VYLIKPMNDALSHHEPIKWD, the amyloid nucleation score result was “inactive”.

Regarding QTGLVMWQLTFTYPLHVWNM, the amyloid nucleation score entry was “inactive”.

As for WSRSSADRVII, the amyloid nucleation score is -0.471 ± 1.5.

For the substance FLRSSVCA, the amyloid nucleation score result is “inactive”.

(Values after the supplement of paper PMC12042874.)
